Target: GLuc1-ALIX (UniProt Q8WUM4)
Assay: protein-fragment complementation assay (split Gaussia luciferase, GLuc2 bait / GLuc1 prey)
Conditions: parent: est. 7.4; read off a plot

Chain of GLuc1-ALIX (Q8WUM4 whole entry, the tested form may be a part): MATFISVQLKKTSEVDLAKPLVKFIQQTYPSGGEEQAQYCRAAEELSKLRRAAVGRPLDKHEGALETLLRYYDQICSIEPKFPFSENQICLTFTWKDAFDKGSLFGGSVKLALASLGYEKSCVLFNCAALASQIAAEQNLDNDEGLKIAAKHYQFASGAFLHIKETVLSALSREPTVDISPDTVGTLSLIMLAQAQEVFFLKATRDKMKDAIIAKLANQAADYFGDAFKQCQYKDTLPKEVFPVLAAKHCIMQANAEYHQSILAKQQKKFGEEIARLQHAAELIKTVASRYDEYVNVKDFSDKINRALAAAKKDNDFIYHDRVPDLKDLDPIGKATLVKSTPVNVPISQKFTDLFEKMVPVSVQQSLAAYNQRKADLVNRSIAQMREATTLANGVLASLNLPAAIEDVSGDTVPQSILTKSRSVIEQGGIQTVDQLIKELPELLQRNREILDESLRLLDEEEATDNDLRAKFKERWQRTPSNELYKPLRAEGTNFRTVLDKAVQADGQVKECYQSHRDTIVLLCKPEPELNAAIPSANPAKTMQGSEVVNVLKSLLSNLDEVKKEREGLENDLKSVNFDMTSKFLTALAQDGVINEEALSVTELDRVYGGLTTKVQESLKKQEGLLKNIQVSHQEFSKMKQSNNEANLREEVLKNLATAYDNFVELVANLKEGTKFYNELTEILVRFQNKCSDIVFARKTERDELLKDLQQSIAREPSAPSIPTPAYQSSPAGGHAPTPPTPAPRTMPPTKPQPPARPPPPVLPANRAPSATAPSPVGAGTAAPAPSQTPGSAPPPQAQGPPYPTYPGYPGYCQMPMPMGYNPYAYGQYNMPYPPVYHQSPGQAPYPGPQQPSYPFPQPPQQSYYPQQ

**Q.** For GLuc2-pX Y800A; K801A; E802A; L803A, which response (Log2 normalized LU) is on record?
**A.** 1.5
